Test results from US20040006215A1 (Bristol-Myers Squibb, published 2004).
“And” between values parts separate entries of the source, which are not always exact repeats. Equal values may be shown once. One block for each binder: values may come before it.

Columns and labels:
[1] = molecular target: T1, recombinant CD30 (supernatant from transfected cells expressing recombinant CD30) (UniProt P28908); assay: capture ELISA: recombinant CD30 captured on BerH2-coated wells, detection with AP-labeled goat anti-human IgG Fc, OD405
T1 sequence (looked up): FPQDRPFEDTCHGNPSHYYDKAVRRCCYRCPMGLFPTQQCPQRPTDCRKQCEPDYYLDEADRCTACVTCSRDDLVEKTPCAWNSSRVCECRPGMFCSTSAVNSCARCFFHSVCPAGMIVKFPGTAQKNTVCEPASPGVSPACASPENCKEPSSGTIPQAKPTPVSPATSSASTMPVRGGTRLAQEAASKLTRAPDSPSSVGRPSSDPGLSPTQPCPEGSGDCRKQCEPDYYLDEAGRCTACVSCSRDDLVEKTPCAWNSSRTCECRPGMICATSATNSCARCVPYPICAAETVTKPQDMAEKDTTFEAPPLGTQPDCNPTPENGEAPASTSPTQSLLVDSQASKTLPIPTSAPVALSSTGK

[2] = molecular target: T2, Human CD30 antigen (Medarex, Inc.) (human) (UniProt P28908); assay: SPR (Biacore 3000), 5F11 captured on protein A, CD30 as analyte, 1:1 Langmuir fit, experiment 1
T2 sequence (looked up): T1 sequence (looked up)

[3] = molecular target: native CD30 expressed on cells (L540 Hodgkin's lymphoma cell line) (human) (UniProt P28908); assay: cell-based or functional assay
[4] = molecular target: native CD30 expressed on cells (L540 Hodgkin's lymphoma cell line) (human) (UniProt P28908); assay: flow cytometry on L540 cells at 4 °C, detection with FITC-labeled goat anti-human IgG Fc, mean fluorescence intensity
[5] = molecular target: T2, Human CD30 antigen (Medarex, Inc.) (human); assay: SPR (Biacore 3000), 5F11 captured on protein A, CD30 as analyte, 1:1 Langmuir fit, experiment 2
[6] = molecular target: native CD30 expressed on cells (L540 Hodgkin's lymphoma cell line) (human) (UniProt P28908); assay: flow cytometry on L540 cells
[7] = molecular target: T3, native CD30 expressed on cells (L540 Hodgkin's lymphoma cell line) (human, UniProt P28908 19-595); assay: flow cytometry on L540 cells at 4 °C, detection with FITC-labeled goat anti-human IgG Fc, mean fluorescence intensity
T3 construct: whole, on cells; also called CD30 on L540 cells; CD30-expressing L540 cells
T3 sequence (looked up): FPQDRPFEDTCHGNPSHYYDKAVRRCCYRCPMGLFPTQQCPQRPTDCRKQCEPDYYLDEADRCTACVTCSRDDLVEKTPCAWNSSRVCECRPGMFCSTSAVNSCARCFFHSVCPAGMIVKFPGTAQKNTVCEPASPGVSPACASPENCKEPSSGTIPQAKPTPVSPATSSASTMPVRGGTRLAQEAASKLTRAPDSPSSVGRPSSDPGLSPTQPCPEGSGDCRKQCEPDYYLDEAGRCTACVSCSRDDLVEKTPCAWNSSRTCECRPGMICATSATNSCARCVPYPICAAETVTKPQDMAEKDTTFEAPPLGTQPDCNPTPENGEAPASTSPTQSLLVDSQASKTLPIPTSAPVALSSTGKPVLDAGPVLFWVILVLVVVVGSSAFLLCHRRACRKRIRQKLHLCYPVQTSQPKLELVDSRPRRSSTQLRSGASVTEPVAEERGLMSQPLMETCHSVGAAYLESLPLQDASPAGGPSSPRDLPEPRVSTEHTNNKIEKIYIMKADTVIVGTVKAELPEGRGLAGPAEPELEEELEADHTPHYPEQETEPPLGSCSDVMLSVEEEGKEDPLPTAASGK
Procedure: Antibodies were tested for binding to L540, a Hodgkin's lymphoma cell line that expresses high-levels of CD30. […] After 1 hour, the cells were washed with PBS and the bound antibodies were detected by incubating the cells with a FITC labeled goat anti-human IgG Fc-specific probe, at 4° C. The excess probe was washed from the cells with PBS and the cell associated fluorescence was determined by analysis using a FACScalibur instrument.

[8] = molecular target: T4, recombinant CD30 (supernatant from transfected cells expressing recombinant CD30) (UniProt P28908 19-379, limits assumed); assay: capture ELISA: recombinant CD30 captured on BerH2-coated wells, detection with AP-labeled goat anti-human IgG Fc, OD405
T4 construct: May be the same preparation as the soluble recombinant CD30 used for immunisation or as m4
T4 sequence (looked up): T1 sequence (looked up)
Procedure: Microtiter wells were coated with BerH2. After blocking the wells with 5% BSA solution, supernatant from transfected cells expressing recombinant CD30 was allowed to react with BER-H2 coated wells. […] After 1 hour, the wells were washed with PBS-tween and the bound antibodies were detected by incubating the cells with an alkaline-phosphatase-labeled goat anti-human IgG Fc-specific probe, at 37° C. The excess probe was washed from the wells and the plate was developed with pNPP developer. The optical density at 405 nm was determined using a microtiter plate reader.

EC50 (read off the curve) [1]: 0.04 µg/mL
Kd [2]: 1.23 nM and 1.36 nM
koff [2]: 7.47e-05 s⁻¹ and 7.03e-05 s⁻¹
kon [2]: 60900 M⁻¹ s⁻¹ and 51600 M⁻¹ s⁻¹
IC50 of growth inhibition (XTT assay) of L540 and Karpas 299 cells, 5F11 cross-linked by goat-anti-human IgG [3]: 10 µg/mL
EC50 (read off the curve) [4]: 0.05 µg/mL
Kd [5]: 1.14 nM and 1.12 nM
koff [5]: 6.58e-05 s⁻¹ and 6.86e-05 s⁻¹
kon [5]: 57700 M⁻¹ s⁻¹ and 61300 M⁻¹ s⁻¹
concentration at saturation [6]: < 1 µg/mL
B1: human monoclonal antibody (HuMab) 5F11 (antibody, V domains shown)
VH: QVQLQQWGAGLLKPSETLSLTCAVYGGSFSAYYWSWIRQPPGKGLEWIGDINHGGGTNYNPSLKSRVTISVDTSKNQFSLKLNSVTAADTAVYYCASLTAYWGQGSLVTVSS
VL: DIQMTQSPTSLSASVGDRVTITCRASQGISSWLTWYQQKPEKAPKSLIYAASSLQSGVPSRFSGSGSGTDFTLTISSLQPEDFATYYCQQYDSYPITFGQGTRLEIK

EC50 (read off the curve) [7]: ~0.1 µg/mL
EC50 (read off the curve) [8]: ~0.03 µg/mL
B2: human monoclonal antibody (HuMab) 2H9 (antibody, V domains shown)
VH: QVQLQQWGAGLLKPSETLSLTCAVYGGSFSGYYWSWIRQPPGKGLEWIGEINHSGSTKYTPSLKSRVTISVDTSKHQFSLKLSSVTAADTAVYYCARETVYYFDLWGRGTLVTVSS
VL: EIVLTQSPATLSLSPGERATLSCRASQSVSSNLAWYQQKPGQAPRLLIYDASNRATGIPARLSGSGSGTDFTLTISSLEPEDFAVYYCQQRSNWPWTFGQGTKVEIK
